Kd data for two substances are collected here from article PMC9303464.

The target in assay [1] is NepR2 (Sphingopyxis granuli TFA). The assay is described as follows: SPR. (Surface plasmon resonance follows binding to a sensor surface in real time, without labels.)
Assay [2] addresses NepR1 (Sphingopyxis granuli TFA). The assay is described as follows: SPR.

In turn, EcfG1 (natural protein) came in with a Kd in assay [1] of 38.8 nM. As for EcfG2 (natural protein), the Kd is 14.2 nM in assay [2] and 23.5 nM in assay [1].

As usually defined, the Kd is a measure of binding affinity in units of concentration. Read a low Kd as tighter binding.
